# Measurements from patent US20220389120A1 (GENSUN BIOPHARMA, published 2022).
# T1: recombinant human Ang2 (Biolegend) (human, UniProt O15123 19-496, limits assumed)
# T1 construct: Bought reagent; also called angiopoietin-2
# T1 sequence (looked up): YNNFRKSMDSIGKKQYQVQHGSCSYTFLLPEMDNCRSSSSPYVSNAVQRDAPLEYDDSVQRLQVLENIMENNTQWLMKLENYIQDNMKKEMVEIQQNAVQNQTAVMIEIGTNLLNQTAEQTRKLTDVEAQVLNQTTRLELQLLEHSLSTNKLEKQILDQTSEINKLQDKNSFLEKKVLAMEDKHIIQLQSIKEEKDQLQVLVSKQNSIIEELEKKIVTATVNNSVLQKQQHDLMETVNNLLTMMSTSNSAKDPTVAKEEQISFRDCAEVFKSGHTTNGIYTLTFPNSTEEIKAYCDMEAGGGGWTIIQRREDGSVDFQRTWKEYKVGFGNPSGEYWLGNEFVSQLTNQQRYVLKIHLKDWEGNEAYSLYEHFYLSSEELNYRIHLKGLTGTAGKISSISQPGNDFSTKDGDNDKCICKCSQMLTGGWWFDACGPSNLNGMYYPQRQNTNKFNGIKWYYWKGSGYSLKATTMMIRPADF
# B1: Bi-T0Z (Fc fusion)
# chain: ESKYGPPCPPCPAPEFLGGPSVFLFPPKPKDTLMISRTPEVTCVVVDVSQEDPEVQFNWYVDGVEVHNAKTKPREEQFNSTYRVVSVLTVLHQDWLNGKEYKCKVSNKGLPSSIEKTISKAKGQPREPQVYTLPPSQEEMGGAQQEECEWDPWTCEHMGSGSATGGSGSTASSGSGSATHQEECEWDPWTCEHMGGTKNQVSLTCLVKGFYPSDIAVEWESNGQPENNYKTTPPVLDSDGSFFLYSRLTVDKSRWQEGNVFSCSVMHEALHNHYTQKSLSLSLGKGGGGSGGGGSGGGGSSDTGRPFVEMYSEIPEIIHMTEGRELVIPCRVTSPNITVTLKKFPLDTLIPDGKRIIWDSRKGFIISNATYKEIGLLTCEATVNGHLYKTNYLTHRQTNTIIDVVLSPSHGIELSVGEKLVLNCTARTELNVGIDFNWEYPSSKHQHKKLVNRDLKTQSGSEMKKFLSTLTIDGVTRSDQGLYTCAASSGLMTKKNSTFVRVHEK
# B2: GS01-A (other)
# heavy: QVQLVQSGAEVKKPGASVKVSCKASGYTFTSYYIHWVRQAPGQGLEWMGWIFPGSGNSKYNENFKGRVTLTADTSTSTVYMELSSLRSEDTAVYYCASETYDYGDYWGQGTLVTVSSASTKGPSVFPLAPCSRSTSESTAALGCLVKDYFPEPVTVSWNSGALTSGVHTFPAVLQSSGLYSLSSVVTVPSSSLGTKTYTCNVDHKPSNTKVDKRVESKYGPPCPPCPAPEFLGGPSVFLFPPKPKDTLMISRTPEVTCVVVDVSQEDPEVQFNWYVDGVEVHNAKTKPREEQFNSTYRVVSVLTVLHQDWLNGKEYKCKVSNKGLPSSIEKTISKAKGQPREPQVYTLPPSQEEMGGAQTNFMPMDDLEQRLYEQFILQQGGGGSGGGGSGGGGSGGGGSTNFMPMDDLEQRLYEQFILQQGLETKNQVSLTCLVKGFYPSDIAVEWESNGQPENNYKTTPPVLDSDGSFFLYSRLTVDKSRWQEGNVFSCSVMHEALHNHYTQKSLSLSLGKGGGGSGGGGSGGGGSGGGGSEVQLVESGGGLVQPGGSLRLSCAASGFTISDYWIHWVRQAPGKGLEWVAGITPAGGYTYYADSVKGRFTISADTSKNTAYLQMNSLRAEDTAVYYCARFVFFLPYAMDYWGQGTLVTVSSGGGGSGGGGSGGGGSGGGGSDIQMTQSPSSLSASVGDRVTITCRASQDVSTAVAWYQQKPGKAPKLLIYSASFLYSGVPSRFSGSGSGTDFTLTISSLQPEDFATYYCQQGYGNPFTFGQGTKVEIK
# light: DIQMTQSPSFLSASVGDRVTITCKASQNVGTNVAWYQQKPGKAPKALIYSASYRYSGVPSRFSGSGSGTEFTLTISSLQPEDFATYYCQQYYSYPYTFGQGTKLEIKRTVAAPSVFIFPPSDEQLKSGTASVVCLLNNFYPREAKVQWKVDNALQSGNSQESVTEQDSKDSTYSLSSTLTLSKADYEKHKVYACEVTHQGLSSPVTKSFNRGEC
# notes: Trispecific PD-1/VEGF/Ang2 antagonist on an IgG4 Fc; also called trispecific construct GS01-A
# B3: GS01-T (other)
# heavy: QVQLVQSGAEVKKPGASVKVSCKASGYTFTSYYIHWVRQAPGQGLEWMGWIFPGSGNSKYNENFKGRVTLTADTSTSTVYMELSSLRSEDTAVYYCASETYDYGDYWGQGTLVTVSSASTKGPSVFPLAPCSRSTSESTAALGCLVKDYFPEPVTVSWNSGALTSGVHTFPAVLQSSGLYSLSSVVTVPSSSLGTKTYTCNVDHKPSNTKVDKRVESKYGPPCPPCPAPEFLGGPSVFLFPPKPKDTLMISRTPEVTCVVVDVSQEDPEVQFNWYVDGVEVHNAKTKPREEQFNSTYRVVSVLTVLHQDWLNGKEYKCKVSNKGLPSSIEKTISKAKGQPREPQVYTLPPSQEEMGGAQQEECEWDPWTCEHMGSGSATGGSGSTASSGSGSATHQEECEWDPWTCEHMGGTKNQVSLTCLVKGFYPSDIAVEWESNGQPENNYKTTPPVLDSDGSFFLYSRLTVDKSRWQEGNVFSCSVMHEALHNHYTQKSLSLSLGKGGGGSGGGGSGGGGSGGGGSEVQLVESGGGLVQPGGSLRLSCAASGFTISDYWIHWVRQAPGKGLEWVAGITPAGGYTYYADSVKGRFTISADTSKNTAYLQMNSLRAEDTAVYYCARFVFFLPYAMDYWGQGTLVTVSSGGGGSGGGGSGGGGSGGGGSDIQMTQSPSSLSASVGDRVTITCRASQDVSTAVAWYQQKPGKAPKLLIYSASFLYSGVPSRFSGSGSGTDFTLTISSLQPEDFATYYCQQGYGNPFTFGQGTKVEIK
# light: B2 light
# notes: Trispecific PD-1/VEGF/Ang1/Ang2 antagonist on an IgG4 Fc; also called trispecific construct GS01-T
# Biological target: T1, recombinant human Ang2 (Biolegend)
# Assay: Tie2-Ang2 blocking ELISA
# Protocol: 96-well assay plates were coated with 0.5 ug/ml of recombinant human Ang2 (Biolegend) in PBS at 4° C. overnight, then blocked with 1% BSA/PBS for 1 hour at room temperature. […] After washing with Wash Buffer, Streptavidin-HRP was added to the plate at 1:200 and incubated for 30 minutes at room temperature.
row,Binder,binding result
1,B1,binds
2,B2,binds
3,B3,binds
